Experimental findings from US20140271661A1 (Bayer, published 2014) are described below.

Assay [1] deals with cynomolgus antithrombin (ATβH species homolog, in Cyno plasma) (Cyno). In words: cell-based or functional assay.
Assay [2] concerns the target rabbit antithrombin β complexed with heparin (rATβH) (rabbit). As to the kind of experiment: cell-based or functional assay.
The target in assay [3] is T1, human antithrombin β complexed with heparin (human ATβH) (human, UniProt P01008 33-464, lacks glycosylation at Asn135 (β glyco-isoform); complexed with heparin). As to the kind of experiment: cell-based or functional assay.
T1 sequence (P01008 33-464, one chain of several): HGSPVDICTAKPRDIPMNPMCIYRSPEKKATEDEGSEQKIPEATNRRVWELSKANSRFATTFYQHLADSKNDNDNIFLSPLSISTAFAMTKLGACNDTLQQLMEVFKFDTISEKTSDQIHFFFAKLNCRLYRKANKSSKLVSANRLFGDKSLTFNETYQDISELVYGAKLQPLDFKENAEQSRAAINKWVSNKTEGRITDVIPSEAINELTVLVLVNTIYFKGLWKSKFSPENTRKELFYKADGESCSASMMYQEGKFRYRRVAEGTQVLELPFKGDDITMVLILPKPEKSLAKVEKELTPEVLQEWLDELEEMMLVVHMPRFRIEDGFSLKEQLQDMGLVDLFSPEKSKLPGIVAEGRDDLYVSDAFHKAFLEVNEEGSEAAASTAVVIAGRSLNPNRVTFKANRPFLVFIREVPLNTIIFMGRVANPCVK
The target in assay [4] is T1, human antithrombin β complexed with …. In words: panning and screening of human antibody libraries against human ATβ in complex with heparin.

B1: TPP2009 hIgG1 (antibody, V domains shown)
VH: EVQLLESGGGLVQPGGSLRLSCAASGFTFSAYRMGWVRQAPGKGLEWVSRIYSSGGRTRYADSVKGRFTISRDNSKNTLYLQMNSLRAEDTAVYYCAREKASDLSGSFSEALDYWGQGTLVTVSS
VL: AQSVLTQDPAVSVALGQTVRITCQGDSLRSYYASWYQQKPGQAPVLVIYGKNNRPSGIPDRFSGSSSGNTASLTITGAQAEDEADYYCNSRDSSGNHLVFGGGTKLTVLG
With B1, in assay [1], the “EC50, FXa-Activated Clotting Assay, cyno HEM A plasma” value is 4.3 nM; the “EC50, FXa-Activated Clotting Assay, cyno normal plasma” value turned out to be 21.5 nM; the “EC50, dPT (diluted prothrombin time), cyno HEM A plasma” value worked out at 13.9 nM. For the same molecule, in assay [2], the “EC50, FXa-Activated Clotting Assay, rabbit HEM A plasma” value stood at 10.5 nM and the “EC50, FXa-Activated Clotting Assay, rabbit normal plasma” value was found to be 25.7 nM. In assay [3], the “EC50, FXa-Activated Clotting Assay, human HEM A plasma” value is 4.7 nM; the “EC50, FXa-Activated Clotting Assay, human normal plasma” value came out at 10.5 nM; the “EC50, dPT (diluted prothrombin time), human HEM A plasma” value was determined as 9 nM.

B2: TPP2803 IgG2, Germlined and converted to IgG2 (antibody, V domains shown)
VH: EVQLLESGGGLVQPGGSLRLSCAASGFTFSSYRMSWVRQAPGKGLEWVSRIYSSGGRTRYADSVKGRFTISRDNSKNTLYLQMNSLRAEDTAVYYCAREKASDLSGSFSEALDYWGQGTLVTVSS
VL: SSELTQDPAVSVALGQTVRITCQGDSLRSYYASWYQQKPGQAPVLVIYGKNNRPSGIPDRFSGSSSGNTASLTITGAQAEDEADYYCNSRDSSGNHLVFGGGTKLTVLG
On to B2, for which, in assay [3], the “EC50, FXa-Activated Clotting Assay, human HEM A plasma” value came to 2.7 nM and the “EC50, FXa-Activated Clotting Assay, human normal plasma” value came to 2.4 nM.

B3: TPP-2016 hIgG (antibody, V domains shown)
VH: EVQLLESGGGLVQPGGSLRLSCAASGFTFSKYRMDWVRQAPGKGLEWVSRIGPSGGKTTYADSVKGRFTISRDNSKNTLYLQMNSLRAEDTAVYYCAREKTSDLSGSYSEALDYWGQGTLVTVSS
VL: DIQMTQSPATLSVSPGERATLSCRASQNINRNLAWYQQKPGRAPRLLIHTASTRAPGVPVRITGSGSGTEFTLTISSLEPEDFAVYFCQQYASPPRTFGQGTKVEIKR
Turning to B3, the binding result in assay [4] is given as “binds”.

B4: TPP-2019 hIgG (antibody, V domains shown)
VH: EVQLLESGGGLVQPGGSLRLSCAASGFTFSRYAMYWVRQAPGKGLEWVSRISPSGGKTHYADSVKGRFTISRDNSKNTLYLQMNSLRAEDTAVYYCARLSQTGYYPHYHYYGMDVWGQGTTVTVSS
VL: DIQMTQSPATLSLSPGERATLSCRASQRVSSSYLTWYQQKPGQAPRLLIYGASSRATGIPDRFSGSGSGTDFTLTISRLEPEDFAVYYCQQYDSTPPLTFGGGTKVEIKR
Consider B4, for which, in assay [4], the binding result was “binds”.
